From publication PMC11385703 come the findings set out here.

In assay [1] the target is Myotoxin II, biotinylated (Bothrops asper) (UniProt P24605). Put plainly: BLI; […]) biosensors; […]; dissociation for 600 s in HEPES-MES pH 3.5; 25°C; 1:1 binding model, […]. In general terms: BLI is a label-free optical method that tracks binding on a fibre tip over time.
Assay [2] shares this target. Put plainly: BLI; […]) biosensors; […]; dissociation for 600 s in HEPES-MES pH 4.0; 25°C; 1:1 binding model, […].
Assay [3] has the same target. Description: BLI; […]) biosensors; […]; dissociation for 600 s in HEPES-MES pH 6.0; 25°C; 1:1 binding model, […].
Assay [4] has the same target. Description: BLI; […]) biosensors; […]; association in HEPES-MES pH 7.4 for 300 s, dissociation in HEPES-MES pH 5.5 for 600 s; 1:1 binding model, […].
For assay [5] the target is unchanged. Put plainly: BLI; […]) biosensors; […]; dissociation for 600 s in HEPES-MES pH 6.5; 25°C; 1:1 binding model, […].
Assay [6] has the same target. Put plainly: BLI; […]) biosensors; […]; dissociation for 600 s in HEPES-MES pH 5.5; 25°C; 1:1 binding model, […].
Assay [7] shares this target. Description: BLI; […]) biosensors; […]; association in HEPES-MES pH 7.4 for 300 s, dissociation in HEPES-MES pH 7.4 for 600 s; 1:1 binding model, […].
Assay [8] has the same target. Description: BLI; […]) biosensors; […]; dissociation for 600 s in HEPES-MES pH 4.5; 25°C; 1:1 binding model, […].
For assay [9] the target is unchanged. Put plainly: BLI; […]) biosensors; […]; dissociation for 600 s in HEPES-MES pH 5.0; 25°C; 1:1 binding model, […].

Usually koff stands for the first-order rate constant of dissociation. The low end stands for slow dissociation, the high end for fast dissociation. In general, Kd refers to the free concentration of one partner at which half of the binding sites on the other are occupied at equilibrium, for simple one-to-one binding. The term kon denotes the rate constant with which the complex forms.

Sequence of Myotoxin II, biotinylated (Bothrops asper) (P24605 17-137): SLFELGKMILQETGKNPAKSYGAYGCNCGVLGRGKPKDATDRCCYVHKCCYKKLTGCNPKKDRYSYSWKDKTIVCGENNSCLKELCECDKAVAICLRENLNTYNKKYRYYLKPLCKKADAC

B1: TPL0039_05_A03 Fab (Fab, V domains shown)
VH: QVQLVESGGGLAKPGRSLRLSCAVSGFTFSSYGMHWVRQAPGKGLEWVAVISYDGSNKYYADSVKGRFTISRDNSKNTLYLQMNSLRAEDTAVYYCASTLQQLDAFDIWGQGTMVTVSS
VL: NFMLTQPHSVSESPGKTITISCTRSSGSIASNYVQWYQQRPGSVPTPVIYEDDRRPSGVPDRFSGSIDSSSNSASLTISGLKTEDEADYYCQSYDSSSVVFGGGTKITVL
Turning to B1, the koff in assay [1] worked out at 0.059 s⁻¹; in assay [2] it was 0.01 s⁻¹; in assay [3], 0.00069 s⁻¹; in assay [4] it was 0.0011 s⁻¹; in assay [5], 0.00058 s⁻¹; in assay [6], 0.0012 s⁻¹. Besides, the values for the koff in assay [7], in assay [8] and in assay [9] were 0.00031 s⁻¹, 0.0038 s⁻¹ and 0.0016 s⁻¹, respectively. Further, the Kd in assay [4] amounted to 6.04 nM; in assay [7], 1.5 nM. Also, the kon in assay [4] was determined as 180000 M⁻¹ s⁻¹; in assay [7], 200000 M⁻¹ s⁻¹.
